Blank lines part the entries; values can stand above or below the binder they belong to.
What was measured:
human α-thrombin [1] = target: T1, human α-thrombin (human, UniProt P00734 328-622); assay: inhibition of α-thrombin hydrolysis of Sar-Pro-Arg-paranitroanilide; Ki from Ki,app by the procedure of Bieth
human α-thrombin [2] = target: T1, human α-thrombin; assay: cell-based or functional assay

Ki (human α-thrombin [1]): 7.3 µM | peptide concentration giving significant prolongation (p<0.05) of the APTT of normal human plasma (human α-thrombin [2]): 12.5 µM | peptide concentration giving significant prolongation (p<0.05) of the PT of normal human plasma (human α-thrombin [2]): 6.25 µM | peptide concentration giving significant prolongation (p<0.05) of the TCT of normal human plasma (human α-thrombin [2]): 0.78 µM
B1: rOicPaF(p-Br) (D-Arg-Oic-Pro-D-Ala-Phe(p-Br)) (peptide)
peptide: RXPAF
HELM: PEPTIDE1{[dR].[O=C([C@@H]1C[C@@H]2CCCC[C@@H]2N1[*:1])[*:2]].P.[dA].[O=C([C@H](Cc1ccc(Br)cc1)N[*:1])[*:2]].[am]}$$$$V2.0; N-terminus assumed
SMILES: C[C@@H](NC(=O)[C@@H]1CCCN1C(=O)[C@@H]1C[C@@H]2CCCC[C@@H]2N1C(=O)[C@H](N)CCCNC(=N)N)C(=O)N[C@@H](Cc1ccc(Br)cc1)C(N)=O

Ki (human α-thrombin [1]): 6.6 µM | peptide concentration giving significant prolongation (p<0.05) of the APTT of normal human plasma (human α-thrombin [2]): 1.56 µM | peptide concentration giving significant prolongation (p<0.05) of the PT of normal human plasma (human α-thrombin [2]): 1.56 µM | peptide concentration giving significant prolongation (p<0.05) of the TCT of normal human plasma (human α-thrombin [2]): 0.78 µM
B2: rOicPaF(p-Me) (D-Arg-Oic-Pro-D-Ala-Phe(p-Me)) (peptide)
peptide: RXPAF
HELM: PEPTIDE1{[dR].[O=C([C@@H]1C[C@@H]2CCCC[C@@H]2N1[*:1])[*:2]].P.[dA].[Cc1ccc(C[C@H](N[*:1])C(=O)[*:2])cc1].[am]}$$$$V2.0
SMILES: Cc1ccc(C[C@H](NC(=O)[C@@H](C)NC(=O)[C@@H]2CCCN2C(=O)[C@@H]2C[C@@H]3CCCC[C@@H]3N2C(=O)[C@H](N)CCCNC(=N)N)C(N)=O)cc1
notes: also called H-r-Oic-P-a-F(p-Me)-NH2

Ki (human α-thrombin [1]): 6.7 µM | peptide concentration giving significant prolongation (p<0.05) of the APTT of normal human plasma (human α-thrombin [2]): 3.13 µM | peptide concentration giving significant prolongation (p<0.05) of the PT of normal human plasma (human α-thrombin [2]): 1.56 µM | peptide concentration giving significant prolongation (p<0.05) of the TCT of normal human plasma (human α-thrombin [2]): 0.39 µM
B3: rOicPsF(p-Me) (D-Arg-Oic-Pro-D-Ser-Phe(p-Me)) (peptide)
peptide: RXPSF
HELM: PEPTIDE1{[dR].[O=C([C@@H]1C[C@@H]2CCCC[C@@H]2N1[*:1])[*:2]].P.[dS].[Cc1ccc(C[C@H](N[*:1])C(=O)[*:2])cc1].[am]}$$$$V2.0; N-terminus assumed
SMILES: Cc1ccc(C[C@H](NC(=O)[C@@H](CO)NC(=O)[C@@H]2CCCN2C(=O)[C@@H]2C[C@@H]3CCCC[C@@H]3N2C(=O)[C@H](N)CCCNC(=N)N)C(N)=O)cc1

Ki (human α-thrombin [1]): 6.4 µM | peptide concentration giving significant prolongation (p<0.05) of the APTT of normal human plasma (human α-thrombin [2]): 25 µM | peptide concentration giving significant prolongation (p<0.05) of the PT of normal human plasma (human α-thrombin [2]): 6.25 µM | peptide concentration giving significant prolongation (p<0.05) of the TCT of normal human plasma (human α-thrombin [2]): 0.78 µM
B4: rOicPaF(p-I) (D-Arg-Oic-Pro-D-Ala-Phe(p-I)) (peptide)
peptide: RXPAF
HELM: PEPTIDE1{[dR].[O=C([C@@H]1C[C@@H]2CCCC[C@@H]2N1[*:1])[*:2]].P.[dA].[O=C([C@H](Cc1ccc(I)cc1)N[*:1])[*:2]].[am]}$$$$V2.0; N-terminus assumed
SMILES: C[C@@H](NC(=O)[C@@H]1CCCN1C(=O)[C@@H]1C[C@@H]2CCCC[C@@H]2N1C(=O)[C@H](N)CCCNC(=N)N)C(=O)N[C@@H](Cc1ccc(I)cc1)C(N)=O

Source: US7879792 (REGENTS OF THE UNIVERSITY OF MICHIGAN, dated 2011)
